Source: patent publication US12460006B2, “Antibodies against integrin alpha 11 beta 1” (Momenta Pharmaceuticals, Inc., priority 2019, dated 2025)

Key:
Conditions in all cases: binding Yes/No
[1] = target: T1, α11β1 expressed on the surface of CHO-K1 cells (Homo sapiens, UniProt Q9UKX5); experiment: FACS antibody binding to CHO-K1 cells expressing human α11
T1 construct: expressed in transfected cells; host or cells: CHO-K1
T1 sequence (Q9UKX5 23-1188): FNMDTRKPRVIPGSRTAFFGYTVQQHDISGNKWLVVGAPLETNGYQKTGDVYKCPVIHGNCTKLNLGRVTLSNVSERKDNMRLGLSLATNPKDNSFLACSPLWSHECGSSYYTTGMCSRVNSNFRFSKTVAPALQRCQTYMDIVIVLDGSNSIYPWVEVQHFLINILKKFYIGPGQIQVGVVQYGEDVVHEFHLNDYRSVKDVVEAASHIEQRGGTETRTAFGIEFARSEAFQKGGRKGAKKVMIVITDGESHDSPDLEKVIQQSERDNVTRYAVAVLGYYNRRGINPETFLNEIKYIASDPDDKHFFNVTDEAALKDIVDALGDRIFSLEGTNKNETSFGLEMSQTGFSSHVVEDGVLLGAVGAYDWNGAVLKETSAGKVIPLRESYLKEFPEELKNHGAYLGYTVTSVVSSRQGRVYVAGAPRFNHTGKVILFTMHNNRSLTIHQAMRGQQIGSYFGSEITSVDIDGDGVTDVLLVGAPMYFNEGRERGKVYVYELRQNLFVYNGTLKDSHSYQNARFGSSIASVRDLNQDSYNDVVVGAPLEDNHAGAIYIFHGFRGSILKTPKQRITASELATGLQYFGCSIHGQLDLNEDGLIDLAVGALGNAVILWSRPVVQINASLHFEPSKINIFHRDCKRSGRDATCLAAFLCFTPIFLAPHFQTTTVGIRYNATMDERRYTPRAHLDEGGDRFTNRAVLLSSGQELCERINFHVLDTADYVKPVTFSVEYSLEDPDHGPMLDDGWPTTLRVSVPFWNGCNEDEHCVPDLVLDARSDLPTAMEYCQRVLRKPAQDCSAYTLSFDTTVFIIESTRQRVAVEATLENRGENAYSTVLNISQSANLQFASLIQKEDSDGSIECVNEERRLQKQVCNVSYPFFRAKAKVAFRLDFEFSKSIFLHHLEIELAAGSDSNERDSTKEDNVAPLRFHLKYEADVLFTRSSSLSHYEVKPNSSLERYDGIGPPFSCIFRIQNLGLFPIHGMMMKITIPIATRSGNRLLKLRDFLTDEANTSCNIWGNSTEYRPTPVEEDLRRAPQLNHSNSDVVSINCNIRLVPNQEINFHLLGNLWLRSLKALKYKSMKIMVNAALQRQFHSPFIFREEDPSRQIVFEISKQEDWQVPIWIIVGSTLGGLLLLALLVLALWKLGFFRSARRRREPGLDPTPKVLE
In short: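 Wild-type or human α11-transfected CHO-K1 cells (endogenous β1) were incubated with antibody at varied concentrations for 30 min at 4° C, then secondary antibody (1:100) 30 min at 4° C. Cells were PFA-fixed and read by flow cytometry; binding EC50 estimated from FACS data.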

myofibroblasts (MF) = experiment: FACS antibody binding to myofibroblasts; parameters: species or system human
In short: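 Human pulmonary fibroblasts, serum-starved 24 h then TGFβ-1-treated 72 h to give myofibroblasts, were blocked with heat-inactivated FBS and stained with anti-α11 antibodies, then PE secondary, 30 min each at 4 °C, before 1% PFA fixation. Binding read by flow cytometry as PE geometric MFI of single cells.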

mouse α11β1 = mouse α11β1 (Mus musculus, UniProt P61622); experiment: ELISA binding to recombinant mouse α11β1
In short: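 Recombinant human or mouse α11β1 coated at 0.25 μg/mL overnight at 4° C, blocked with 2% BSA, then antibody titrations bound 1 h at room temperature. Detection used biotinylated anti-IgG followed by streptavidin-HRP and TMB, with absorbance read at 450 nm.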

Sequence of mouse α11β1 (P61622 23-1141 limits assumed): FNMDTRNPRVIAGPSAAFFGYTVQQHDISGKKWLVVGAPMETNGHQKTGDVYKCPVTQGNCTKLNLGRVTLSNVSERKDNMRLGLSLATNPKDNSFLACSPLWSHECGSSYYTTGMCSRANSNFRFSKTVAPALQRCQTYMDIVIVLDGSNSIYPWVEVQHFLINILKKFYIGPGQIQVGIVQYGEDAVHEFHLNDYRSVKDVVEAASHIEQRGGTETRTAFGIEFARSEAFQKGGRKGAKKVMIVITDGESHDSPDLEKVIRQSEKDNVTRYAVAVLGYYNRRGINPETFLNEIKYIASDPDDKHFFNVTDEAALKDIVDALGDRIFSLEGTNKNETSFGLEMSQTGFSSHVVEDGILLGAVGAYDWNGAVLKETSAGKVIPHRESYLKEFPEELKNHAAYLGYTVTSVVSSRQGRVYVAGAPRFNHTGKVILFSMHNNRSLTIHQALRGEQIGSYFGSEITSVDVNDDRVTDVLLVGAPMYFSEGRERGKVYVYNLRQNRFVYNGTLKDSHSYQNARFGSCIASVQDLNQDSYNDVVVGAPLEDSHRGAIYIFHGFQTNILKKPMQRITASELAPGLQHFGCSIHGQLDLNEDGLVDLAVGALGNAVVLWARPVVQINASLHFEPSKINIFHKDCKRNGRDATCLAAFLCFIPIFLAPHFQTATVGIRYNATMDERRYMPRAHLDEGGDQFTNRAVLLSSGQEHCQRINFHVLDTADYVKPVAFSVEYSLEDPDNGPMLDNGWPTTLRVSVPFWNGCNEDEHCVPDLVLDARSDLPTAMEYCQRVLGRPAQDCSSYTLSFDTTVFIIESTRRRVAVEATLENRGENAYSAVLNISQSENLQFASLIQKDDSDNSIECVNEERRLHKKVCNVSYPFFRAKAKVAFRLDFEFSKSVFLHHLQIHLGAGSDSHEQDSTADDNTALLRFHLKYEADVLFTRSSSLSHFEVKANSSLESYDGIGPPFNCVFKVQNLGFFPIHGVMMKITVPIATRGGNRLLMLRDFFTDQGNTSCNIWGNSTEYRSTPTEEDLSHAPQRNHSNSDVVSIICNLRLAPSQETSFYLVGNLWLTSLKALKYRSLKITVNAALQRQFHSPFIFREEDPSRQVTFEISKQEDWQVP
Sequence of mouse α11β1 (P09055 21-728 partner limits assumed): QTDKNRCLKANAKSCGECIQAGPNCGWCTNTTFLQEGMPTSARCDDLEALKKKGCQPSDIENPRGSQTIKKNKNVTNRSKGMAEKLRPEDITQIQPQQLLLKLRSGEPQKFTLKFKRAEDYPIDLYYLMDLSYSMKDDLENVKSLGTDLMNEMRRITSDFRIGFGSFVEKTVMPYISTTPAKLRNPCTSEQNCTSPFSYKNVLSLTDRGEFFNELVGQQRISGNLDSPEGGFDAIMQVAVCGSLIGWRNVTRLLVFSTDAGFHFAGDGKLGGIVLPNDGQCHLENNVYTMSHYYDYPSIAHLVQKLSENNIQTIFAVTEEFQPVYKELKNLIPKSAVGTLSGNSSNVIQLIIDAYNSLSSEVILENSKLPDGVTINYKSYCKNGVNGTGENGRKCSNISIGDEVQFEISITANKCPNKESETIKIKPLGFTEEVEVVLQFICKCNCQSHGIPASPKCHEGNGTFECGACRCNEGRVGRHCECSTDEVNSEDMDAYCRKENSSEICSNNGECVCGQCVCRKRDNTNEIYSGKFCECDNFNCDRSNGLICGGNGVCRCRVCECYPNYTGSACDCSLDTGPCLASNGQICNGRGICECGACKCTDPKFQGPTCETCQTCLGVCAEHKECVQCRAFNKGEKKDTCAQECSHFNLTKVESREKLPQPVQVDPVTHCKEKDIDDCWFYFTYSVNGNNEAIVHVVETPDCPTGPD

B1: 4E1: rabbit anti-α11β1 mAb; heavy chain SEQ ID NO: 195, light chain SEQ ID NO: 196 (antibody)
heavy: METGLRWLLLVAVLKGVQCQSLEESGGDLVKPGTSLTLSCTASGFSFGSYYYMCWVRQAPGKGLEWIACIDVGSSGDTYYASWVNGRFTISKTSSTTVTLQMTSLTAADTATYFCARDDTAAGGFGNLELWGPGTLVTVSSGQPKAPSVFPLAPCCGDTPSSTVTLGCLVKGYLPEPVTVTWNSGTLTNGVRTFPSVRQSSGLYSLSSVVSVTSSSQPVTCNVAHPATNTKVDKTVAPSTCSKPMCPPPELPGGPSVFIFPPKPKDTLMISRTPEVTCVVVDVSQDDPEVQFTWYINNEQVRTARPPLREQQFNSTIRVVSTLPIAHQDWLRGKEFKCKVHNKALPAPIEKTISKARGQPLEPKVYTMGPPREELSSRSVSLTCMINGFYPSDISVEWEKNGKAEDNYKTTPTVLDSDGSYFLYSKLSVPTSEWQRGDVFTCSVMHEALHNHYTQKSISRSPGK
light: MDTRAPTQLLGLLLLWLPGARCAFELTQTPSSVSEPVGGTVTIKCQASQSIYSYFSWYQQKPGQPPKRLIYQASTLASGVPSRFKGSGSGTDFTLTISDLECADAATYYCQNNYGRGSGSYFFGFGGGTEVVVKGDPVAPTVLIFPPAADQVATGTVTIVCVANKYFPDVTVTWEVDGTTQTTGIENSKTPQNSADCTYNLSSTLTLTSTQYNSHKEYTCKVTQGTTSVVQSFNRGDC
CHO-K1 FACS [1]: Yes
MF FACS (myofibroblasts (MF)): Yes
Murine α11β1 ELISA (mouse α11β1): No

B2: 6G4: rabbit anti-α11β1 mAb; heavy chain SEQ ID NO: 181, light chain SEQ ID NO: 182 (antibody)
heavy: METGLRWLLLVAVLKGVQCQQQLEESGGGLVKPGGTLTLTCKASGVALNPYYYMCWVRQAPGKGLEWIACVDADSSGSTYYASWAKGRFTISKTSSTTVTLKMTSLTAADTATYFCARESVDYSSVGIGYVHGTDGLWGPGTLVTVSSGQPKAPSVFPLAPCCGDTPSSTVTLGCLVKGYLPEPVTVTWNSGTLTNGVRTFPSVRQSSGLYSLSSVVSVTSSSQPVTCNVAHPATNTKVDKTVAPSTCSKPMCPPPELPGGPSVFIFPPKPKDTLMISRTPEVTCVVVDVSQDDPEVQFTWYINNEQVRTARPPLREQQFNSTIRVVSTLPIAHQDWLRGKEFKCKVHNKALPAPIEKTISKARGQPLEPKVYTMGPPREELSSRSVSLTCMINGFYPSDISVEWEKNGKAEDNYKTTPTVLDSDGSYFLYSKLSVPTSEWQRGDVFTCSVMHEALHNHYTQKSISRSPGK
light: MDTRAPTQLLGLLLLWLPGARCADIVVTQTPSSVSAAVGGTVTIKCQASQSISNYFSWYQQKPGQPPKLLIYRASTLASGVPSRFKGSGSGTEFTLTISDLECADAATYYCQCTYGRSNSNFFYGFGGGTEVVVKGDPVAPTVLIFPPAADQVATGTVTIVCVANKYFPDVTVTWEVDGTTQTTGIENSKTPQNSADCTYNLSSTLTLTSTQYNSHKEYTCKVTQGTTSVVQSFNRGDC
CHO-K1 FACS [1]: Yes
MF FACS (myofibroblasts (MF)): Yes
Murine α11β1 ELISA (mouse α11β1): No

B3: 6C7: rabbit anti-α11β1 mAb; heavy chain SEQ ID NO: 185, light chain SEQ ID NO: 186 (antibody)
heavy: METGLRWLLLVAVLKGVQCQQQLEESGGGLVKPGGTLTLTCKASGIDFSSYYYMCWVRQAPGKGLELIVCIYTSSGGTWYASWVNGRLTISRSTSLNTVDLKMTSLTAADTATYFCARGVYSGSSDYPTRLDLWGQGTLVTVSLGQPKAPSVFPLAPCCGDTPSSTVTLGCLVKGYLPEPVTVTWNSGTLTNGVRTFPSVRQSSGLYSLSSVVSVTSSSQPVTCNVAHPATNTKVDKTVAPSTCSKPMCPPPELPGGPSVFIFPPKPKDTLMISRTPEVTCVVVDVSQDDPEVQFTWYINNEQVRTARPPLREQQFNSTIRVVSTLPIAHQDWLRGKEFKCKVHNKALPAPIEKTISKARGQPLEPKVYTMGPPREELSSRSVSLTCMINGFYPSDISVEWEKNGKAEDNYKTTPTVLDSDGSYFLYSKLSVPTSEWQRGDVFTCSVMHEALHNHYTQKSISRSPGK
light: MDTSTSTALLGLLLLWLTGARCAIEMTQSPPSLSASVGETVRIRCLASEDIYSGISWYQQKPEKPPTLLISGASNLESGVPPRFSGGGSGTDYTLTIGGVQAEDVATYYCLGGYSFSSTGLTFGAGTKVEIKRDPVAPSVLLFPPSKEELTTGTATIVCVANKYFPDVTVTWEVDGTTQTTGIENSKTPQNSADCTYNLSSTLTLTSTQYNSHKEYTCKVTQGTTSVVQSFNRGDC
CHO-K1 FACS [1]: Yes
MF FACS (myofibroblasts (MF)): Yes
Murine α11β1 ELISA (mouse α11β1): No

B4: 6F9: rabbit anti-α11β1 mAb; heavy chain SEQ ID NO: 183, light chain SEQ ID NO: 184 (antibody)
heavy: METGLRWLLLVAVLKGVQCQSLEESGGDLVKPGASLTLTCTASGSSFSSTYWNCWVRQAPGKGLEWIACINAGSGTTYYASWAKGRFTVSKTSSTTVTLQMTSLTAADTATYFCTRDSDGRFSSGYYFNLWGPGTLVTVSSGQPKAPSVFPLAPCCGDTPSSTVTLGCLVKGYLPEPVTVTWNSGTLTNGVRTFPSVRQSSGLYSLSSVVSVTSSSQPVTCNVAHPATNTKVDKTVAPSTCSKPMCPPPELPGGPSVFIFPPKPKDTLMISRTPEVTCVVVDVSQDDPEVQFTWYINNEQVRTARPPLREQQFNSTIRVVSTLPIAHQDWLRGKEFKCKVHNKALPAPIEKTISKARGQPLEPKVYTMGPPREELSSRSVSLTCMINGFYPSDISVEWEKNGKAEDNYKTTPTVLDSDGSYFLYSKLSVPTSEWQRGDVFTCSVMHEALHNHYTQKSISRSPGK
light: MDTRAPTQLLGLLLLWLPGATFAQVLTQTASPVSAAVGGTVTINCQSSQSVYDNNWLAWYQQKPGQPPKLLIDDASKLTSGVSSRFKGSGSGTQFTLTISGVQCDDAATYYCQGAYYSSGWYWAFGGGTEVVVKGDPVAPTVLIFPPAADQVATGTVTIVCVANKYFPDVTVTWEVDGTTQTTGIENSKTPQNSADCTYNLSSTLTLTSTQYNSHKEYTCKVTQGTTSVVQSFNRGDC
CHO-K1 FACS [1]: Yes
MF FACS (myofibroblasts (MF)): Yes
Murine α11β1 ELISA (mouse α11β1): No

B5: 5D7: rabbit anti-α11β1 mAb; heavy chain SEQ ID NO: 191, light chain SEQ ID NO: 192 (antibody)
heavy: METGLRWLLLVAVLKGVQCQEQLVESGGGLVQPEGSLTLTCKASGFDFSSNAMCWVRQAPGKGLEWIACIYNGDGSTYYASWVNGRFTISKTSSTTVTLQMTSLTAADTATYFCARGLSNWNRDNLWGPGTLVTVSSGQPKAPSVFPLAPCCGDTPSSTVTLGCLVKGYLPEPVTVTWNSGTLTNGVRTFPSVRQSSGLYSLSSVVSVTSSSQPVTCNVAHPATNTKVDKTVAPSTCSKPMCPPPELPGGPSVFIFPPKPKDTLMISRTPEVTCVVVDVSQDDPEVQFTWYINNEQVRTARPPLREQQFNSTIRVVSTLPIAHQDWLRGKEFKCKVHNKALPAPIEKTISKARGQPLEPKVYTMGPPREELSSRSVSLTCMINGFYPSDISVEWEKNGKAEDNYKTTPTVLDSDGSYFLYSKLSVPTSEWQRGDVFTCSVMHEALHNHYTQKSISRSPGK
light: MDTRAPTQLLGLLLLWLPGATFAQVLTQTPSSVSAAVGGTATINCQASQSLYSPKNLAWYQQTPGQPPKLLIYSASKLASGVPSRFKGSGSGTQFTLTISGVQCDDAAIYYCQGEFSCTTAACFAFGGGTEVVVKGDPVAPTVLIFPPAADQVATGTVTIVCVANKYFPDVTVTWEVDGTTQTTGIENSKTPQNSADCTYNLSSTLTLTSTQYNSHKEYTCKVTQGTTSVVQSFNRGDC
CHO-K1 FACS [1]: Yes
MF FACS (myofibroblasts (MF)): Yes
Murine α11β1 ELISA (mouse α11β1): No
